This experiment addresses T1, Full‐length Saccharomyces cerevisiae Pex5 (purified, for fluorescence anisotropy) (Saccharomyces cerevisiae, UniProt P35056 1-612).
T1 construct: Pex5, peroxisomal targeting factor (PTS1 receptor), Saccharomyces cerevisiae, full length; also called purified yeast Pex5; source: expressed in autoinduction medium, purified (Ni‐NTA, TEV digestion, second Ni‐NTA, gel filtration Superdex 200)
T1 sequence (looked up): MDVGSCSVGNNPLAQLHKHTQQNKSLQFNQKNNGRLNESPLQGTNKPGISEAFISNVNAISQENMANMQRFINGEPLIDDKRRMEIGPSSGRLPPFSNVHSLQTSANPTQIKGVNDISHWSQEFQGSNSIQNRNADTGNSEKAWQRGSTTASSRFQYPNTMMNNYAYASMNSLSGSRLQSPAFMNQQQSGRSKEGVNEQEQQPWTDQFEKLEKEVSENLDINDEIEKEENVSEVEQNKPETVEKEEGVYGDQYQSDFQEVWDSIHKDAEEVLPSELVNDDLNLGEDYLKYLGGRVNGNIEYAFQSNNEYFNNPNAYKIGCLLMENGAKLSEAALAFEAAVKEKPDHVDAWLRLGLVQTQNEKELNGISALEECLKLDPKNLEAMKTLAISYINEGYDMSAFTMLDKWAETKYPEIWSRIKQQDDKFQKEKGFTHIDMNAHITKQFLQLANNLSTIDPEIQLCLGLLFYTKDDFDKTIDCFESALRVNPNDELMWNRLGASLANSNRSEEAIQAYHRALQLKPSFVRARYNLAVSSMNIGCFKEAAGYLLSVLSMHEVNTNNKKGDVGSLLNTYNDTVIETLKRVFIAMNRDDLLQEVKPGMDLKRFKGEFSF
As to the kind of experiment: fluorescence polarisation; fluorescence anisotropy; FITC peptide at 10 nM, Pex5 in serial dilution; 50 mM Hepes pH 7.5, 150 mM NaCl; black 96-well plates, excitation/detection 470/530 nm; three independent experiments; binding-saturation model with one binding site. The following applies: both partners purified. (Polarisation of emitted light reports the rotation of a fluorescent probe.)

The source of these data is PMC9513677, “Systematic multi‐level analysis of an organelle proteome reveals new peroxisomal functions” (Molecular Systems Biology, 2022).

What is called Kd is the concentration at which binding is half-saturated.

Primed or numbered codes have the meaning given here. Where no end group is shown, it is not given here. FITC′ = fluorescein isothiocyanate

B1: FITC-labeled peptide of the carboxyl terminus of Idp3 (known PTS1 motif) (peptide)
peptide: {FITC′}-YEDKKGMCKL
notes: tyrosine added at the N terminal of the Idp3 peptide for concentration determination; not part of Idp3; Idp3, Saccharomyces cerevisiae, carboxyl terminus with the PTS1 motif; also called PTS1 motif from Idp3; source: synthetic peptide (Genscript)
Turning to B1, the affinity, expressed as Kd, was 5.5 ± 0.5 µM.

B2: FITC-labeled peptide of the carboxyl‐terminal 10 amino acids of Yhl045w (Pxp3) (peptide)
peptide: {FITC′}-RKRVLGVAYL
notes: Yhl045w (Pxp3, Peroxisomal protein 3), Saccharomyces cerevisiae, the carboxyl-terminal 10 amino acids; also called Pxp3 motif; Pxp3 targeting peptide; source: synthetic peptide (Genscript)
As to B2, the Kd came to 9.5 ± 2.9 µM.
